Measurements taken from the DeepSol protein solubility set.

assay: soluble on expression in E. coli; label from the status in PepcDB or PDB records

| Sequence | soluble on expression in E. coli |
| --- | --- |
| MHLSRCRKCGRVMKGERIDPYRVKLTCSCGFSDFRTMTEKVKTVNPFFQKGGFSPLLESERGKMVLTMQRANREHLEIISLEEISMLVSSDFDLPEVLQHVTAKVATQLKVSVCNIYLREGDEVVLAATHGFDPAFIGKIRIKIGDGITGSVARDGQYISLSRASQDPRYRYFPELQEEKYNSMLSFPIGDKKEVYGVINLNTTSIRSFHEDEIYFVSIIANLILTAIKLRQQVASSRKAAEASA | not soluble |
| MHNNENVSGISAYLLGLIIGDGGLYKLKYKGNRSEYRVVITQKSENLIKQHIAPLMQFLIDELNVKSKIQIVKGDTRYELRVSSKKLYYYFANMLERIRLFNMREQIAFIKGLYVAEGDKTLKRLRIWNKNKALLEIVSRWLNNLGVRNTIHLDDHRHGVYVLNISLRDRIKFVHTILSSHLNPLPPE | soluble |
| MHNSTGRYVLGMEVMTPTGMNLDIATSVANADLARFDQVVGEDGIERFTFAKIEYTKESDLFEKTCELTANLLDSLLTQLPRS | not soluble |
| MHPTYSAVQARLLEANRLSPELLAKSLCIIGAHHVDYADIYCQRTAYESWHLEEGIVKSGSFQINQGVGVRAVSGDKTAFAYADSLCIDSINRSARAVRAIGAAGGKVSAKMPSETRGKPVCSASDPIAGLDSAAKVALLNKVEAIAKAADPRIVQVMAGLTCEYDMVYLARLDGKHAADIRPMVRLNVTVIAKQGERREQGSAGGGGRYDLAYFDENLVHRFVDAAVKQALTNLESRPAPAGEMTVVLGNGWPGVLLHEAVGHGLEGDFNRKGTSVFSGRIGERVAAKGVTVVDQGDIAGRRGSLNIDDEGNETRRTVLIEDGILVGYMQDETNARLTGTQSTGNGRRESYASAPMPRMTNTFMENGSYEPEEIIASIDKGIYAVNFGGGQVDITSGKFVFSASEAWWVEGGRLQYPVKGATIIGNGPEVLKHVSMIGNDTALDSGVGVCGKEGQSVPVGVGQPTLRIDAGLTVGGSAI | not soluble |
| MHRNYFKKKQNLIFSEKQQSVEKYGDDWVHHFHTANARETFGKKIFGIFFPRNLSIERTRETPTAKEGDLLHNGNY | not soluble |
| MHSPTPFALAIFLGILYHIPTFSNQRSIMNNLELEQLINQKLSSDKINDYAPNGLQVEGKTEIKKIITGVTASQALINYAISQNADAILVHHGYFWKSETPCIRGMKGKRIKALLVNDINLYGYHLPLDVHPELGNNAQLAKLLDIENLQPLEKGSVSIPVWGELKEPMTGKDFAEKIEKVLNRKPLICIENGPHLIRKIGICTGGGQGYIDLAAEQGCDAFITGEVSEQTIHSAREQGLYFFSAGHHATERYGIKALGEWLAKEYGFDVEFKDIDNPALEHHHHHH | soluble |
| MHSQVFSAFPHSLPLRSWVNVIKNPQFVFDIHKGSITDACLSVVAQTFMDSCSTSEHRLGKDSPSNKLLYAKDIPSYKSWVERYYADIAKLPAISDQDMNAYLAEQSRLHAVEFNMLSALNEIYSYVSKYSEELIGALEQDEQARRQRLAYKVEQLINAMSIESLEHHHHHH | not soluble |
| MHTLLLLAALSNQITFTTTQQGDIYTVIPQVTLNEPCVCQVQILSVRDGVGGQSHTQQKQTLSLPANQPIELSRLSVNISSEDSVKIIVTVSDGQSLHLSQQWPPSAQ | not soluble |
| MHYDAIVVGGGMVGAAAALGLAQRGFQVAVIEQEMPTPFDATSPPDLRISAIGYASVALLKELDAWPRVQQMRSAPYRRLETWEWANARVVFDAADIHLPELGFMVENRVLQLALWESLQEEERCRCYCPATPQGLQRTDDGWCLQLADGQKLTASLVIGADGANSQVRQWAGIGISGWQYRQSCMLIGVETSQPQQDVTWQQFTPSGPRAFLPLFDQWGSLVWYDSPQRIRQLQAMPLAQLDKEIAAAFPERLGTVKVISAGSFPLVRRHAQTYIKPGLVLLGDAAHTINPLAGQGVNLGYRDVEALLDVLINARNAGEQWASERVLRRYQCRRMPDNLMMQSGMDLFYSAFSNALPPLSFARNMALMVAQRAGVLKQRALKYAIGVLEHHHHHH | soluble |
| MHYFSIHDQSGRHIGFFILLADDESEARPQSGRFAVKLEGGMENHVLSPFGQTEIPQYWRVVKDRIELFFDEAPVGTLRNEYLTVSGQTFVLNDLTGNM | not soluble |
| MHYSYLEPGLHAELAAITPDEAVAHLRNHLGNLLLDPAVTAAYINRLGVLTPEETTPSTRAWLTYLLVRYCDLLPLDLAAQRILAQVTGNAAPHLRDLERCAIPDPIERKLERLGAGEDSERNRAMLLALLHEYPYSPAIMERLMTVELALDIPVGGEWLPSVRPPAGLLRPLHERLFIHAMMQGDTERALQHAAACVPDNPSPHLLNHLAELHARLGDTQQALNLYGASLEADPLQHPVRLRMEALAKPPRAHADALHHRIAICLYSFNKAELLERTLSSLAASQTGEAHILVLLNGCTDDSATRVAAVNERLFNGRLEVIDMPINIGAPAARNWLLAKQTVREADFVAFLDDDVDVPAAWLPRLVGNLEEHPGAGVAGTRVRNPGDVPRLQYLYRNISVARPGLIRLSLDTPTLHHDTGFYDFTRSTTSVMGCCHVFTRRALDEVPAFDLRFSPSQMDDIAHDIDLALAGFDVLYTGDVVCVHHQMSGLGRANATDWKRFGNVAGNDVKFYYRFADRLDALGRLNNLGFMPDMPPALEHHHHHH | soluble |
| MIAAYENSKWEPVKWENDMHCAVKIQDKNQWRRGQIIRMVTDTLVEVLLYDVGVELVVNVDCLRKLEENLKTMGRLSL | soluble |
| MIAGYIMAAENQTLNQWTINQLGITRGDSILEVGFGPGYCMQQMLKREKDVHLHGIDVSEAMLKLAARRVKPKGVRLIQGSIETFPLPASFYDKVISVNNYTIWNDQTKGIKQIYRALKPGGKAAITMQPREADASPEKTKSFGRQMIADFKAAGFEDIDIQFKNIKPELSVCATAKKPATLEHHHHHH | not soluble |
| MIAPRLVSIIIPTLNEEDAIAPTLRQARRQEGPVEILVADGGSTDDTRSVAQARGATVLQAPRGRAPQMNHGADCSSGDILLFLHADTRLPPNGLSRIRRALAAPDAIAGTFRLRFDDPTPLLRFYAWCTRWPWIRLCFGDRGQFVERSAFEAVGGFPDWPLFEDLELAARLQGHGRFRFLDAAVTTSARRFRRHGPLRQQLLNLYLWGHYLWGTDPDLLASLYPDRLGPVDQQPRSLEHHHHHH | soluble |
| MIAWYGMALDQAVVNRPVKAKLYSKIVDSVECTACSRYCRLKPGKTGFCGVRKNIDGDLYLLVYGLPAAINVDPIEKKPVLHMYPGARIFSLSTVGCSFACQYCQNYDISQRRTITGYHYDPEEIVEEALSMGCQGIAYTYNEPSIFMEYAHDIGVIARRHGLINIFVTNGFETPEAIDYARDFLDAATVDFKGNASDEFYRKYISVPSARPIFETLANLKSAGIHVEVTDLVVPEVGDRLEDARTMLERIMDILGEYVPISFLRFHPDYRMMDLPDTPVETLRKHHDLAVSMGFKYVYIGNVPGYGENTYCPNCGNLLIERFVFSSKVIGLDRNGRCKKCGYDPQIPLMKEKRADYIS | not soluble |
| MIDFNVDSARCTRCGQCVADCPSRIIVMATGEYPSIAPGKEFSCLRCEHCLAVCPEAAISILGFSPDGSTPLKGNLPETDQLETLIAGRRSVRRYCPENLSPELIDKLITVASCAPTGVNARKVRFTVLDDREKTAHFRDEVMERLVRLLEEEALPESKAYYARFVKVWQKHKIDLVFRDAPHLLIATAPKSLSTPRQDCVIALTTFELYAQACGIGTLWNGIATWAIEEMLPEMRQRLGIPDDHAFGYAMLFGKPAVRYARTVQHHPPEIYRVPLEHHHHHH | not soluble |
| MIDHAHLRLFQFCDSQFPTGAFSHSFGLETYIQRDTVHDEESFQQWLVLFLNEQLTYADGLTMRLVYDALNENDTKAILKLDRILFVQNLPKETRQGSKQMGNRMVKLASELYDSDWINWYHAQMKDKKASLHPAICFTMLGHHLGVDIETIIDYYLYQNVSSLTQNAVRAIPLGQTAGQRIVHKMIPIMKETRDHIMTIPASQLGITAPGLEINQMEHENVNVRIFISLEHHHHHH | not soluble |
| MIDIIANIASILGFTMQMNDKFFAHGMNKEQADNEMLLLFLKQLSVKSKAIKEIHQKYHSLSNDFRLVAVFLTNPVIYEKIVTNRSRALRNALKESLQTPSARIAQTQLSAQLRPCFENLLVSIKDESHLSVEFSGINDCEMKAILRKILNAQKEIFQLHQQFCGIMKTIGSYPLGNWGDSEFDFIKTNQRVFISDFYSIIDYADIILMGYLDIYHCALNLK | not soluble |
| MIDILLCDVIITIGDVEIKAHKTILAAGSTYFKTMFTTPMIARDLATRVNLQMFDKMSSKILYSTYTIGI | not soluble |
